Seven substances from article PMC12078792 can be followed below.

The target of assay [1] is HIV-1 CA hexamer tubes, disulfide-stabilized CA hexamers (A14C/E45C) assembled into large molecular weight tubes. In words: co-sedimentation with CA hexamer tubes. As to conditions: read off a plot.
Assay [2] deals with HIV-1 CA hexamer tubes, disulfide-stabilized CA hexamers (A14C/E45C) assembled into large molecular weight tubes (HIV-1).
Assay [3] concerns the target HIV-1 CA hexamer tubes, disulfide-stabilized CA hexamers (A14C/E45C) assembled into large molecular weight tubes. Kind of assay: co-sedimentation with CA hexamer tubes. As to conditions: parent: est. 81; read off a plot.

In the case of “TRIM-NUP153C-HA with CbM.1 replaced by CbM.2 (∆1::2) (from UniProt Q0PF16;P49790) F1417A”, the response (% Bound NUP153c) in assay [1] (parent: est. 55) came out at 36.

As for “TRIM-NUP153C-HA with the mutation F1417A in CbM.1 (from UniProt Q0PF16 1-304; P49790 896-1475)”, the TRIM-NUP153c restriction assay: increase in HIV-GFP-positive cells in assay [2] came to 7 fold. With “TRIM-NUP153C-HA, TRIM domain of rhesus TRIM5α (1-304) fused to the HA-tagged human NUP153 C-terminal domain (896-1475), wild type (from UniProt Q0PF16 1-304; P49790 896-1475)”, in assay [2], the TRIM-NUP153c restriction assay: HIV-GFP-transduced GFP-positive cells relative to empty vector control (% relative to empty vector control) turned out to be 18.5. With “TRIM-NUP153C-HA, TRIM domain of rhesus TRIM5α (1-304) fused to the HA-tagged human NUP153 C-terminal domain (896-1475), wild type (from UniProt Q0PF16;P49790) ∆1::2 (CbM.1 replaced by CbM.2)”, the response (% Bound NUP153c) in assay [1] (parent: est. 81) and in assay [3] was 55 each time.

Take “TRIM-NUP153C-HA, TRIM domain of rhesus TRIM5α (1-304) fused to the HA-tagged human NUP153 C-terminal domain (896-1475), wild type (from UniProt Q0PF16;P49790) ∆1::3 (CbM.1 replaced by CbM.3)”: the response (% Bound NUP153c) in assay [3] came out at 47. The same measure, in the same setting: as for “TRIM-NUP153C-HA, TRIM domain of rhesus TRIM5α (1-304) fused to the HA-tagged human NUP153 C-terminal domain (896-1475), wild type (from UniProt Q0PF16;P49790) ∆1::4 (CbM.1 replaced by CbM.4)”, the figure is 51. With “TRIM-NUP153C-HA, TRIM domain of rhesus TRIM5α (1-304) fused to the HA-tagged human NUP153 C-terminal domain (896-1475), wild type (from UniProt Q0PF16;P49790) ∆2::1 + ∆1::2 (CbM.1 and CbM.2 swapped)”, in assay [1] (parent: est. 81), the response (% Bound NUP153c) was found to be 97.
